T1: τ138 (Tfc3), τB subunit of endogenous S. cerevisiae TFIIIC (S. cerevisiae, UniProt P34111 1-1160)
T1 construct: τ138 (Tfc3), subunit of S. cerevisiae TFIIIC, endogenous subunit in the purified complex; source: endogenous, purified from S. cerevisiae strain SC2342 as part of TFIIIC (TAP tag on τ60)
T1 sequence (looked up): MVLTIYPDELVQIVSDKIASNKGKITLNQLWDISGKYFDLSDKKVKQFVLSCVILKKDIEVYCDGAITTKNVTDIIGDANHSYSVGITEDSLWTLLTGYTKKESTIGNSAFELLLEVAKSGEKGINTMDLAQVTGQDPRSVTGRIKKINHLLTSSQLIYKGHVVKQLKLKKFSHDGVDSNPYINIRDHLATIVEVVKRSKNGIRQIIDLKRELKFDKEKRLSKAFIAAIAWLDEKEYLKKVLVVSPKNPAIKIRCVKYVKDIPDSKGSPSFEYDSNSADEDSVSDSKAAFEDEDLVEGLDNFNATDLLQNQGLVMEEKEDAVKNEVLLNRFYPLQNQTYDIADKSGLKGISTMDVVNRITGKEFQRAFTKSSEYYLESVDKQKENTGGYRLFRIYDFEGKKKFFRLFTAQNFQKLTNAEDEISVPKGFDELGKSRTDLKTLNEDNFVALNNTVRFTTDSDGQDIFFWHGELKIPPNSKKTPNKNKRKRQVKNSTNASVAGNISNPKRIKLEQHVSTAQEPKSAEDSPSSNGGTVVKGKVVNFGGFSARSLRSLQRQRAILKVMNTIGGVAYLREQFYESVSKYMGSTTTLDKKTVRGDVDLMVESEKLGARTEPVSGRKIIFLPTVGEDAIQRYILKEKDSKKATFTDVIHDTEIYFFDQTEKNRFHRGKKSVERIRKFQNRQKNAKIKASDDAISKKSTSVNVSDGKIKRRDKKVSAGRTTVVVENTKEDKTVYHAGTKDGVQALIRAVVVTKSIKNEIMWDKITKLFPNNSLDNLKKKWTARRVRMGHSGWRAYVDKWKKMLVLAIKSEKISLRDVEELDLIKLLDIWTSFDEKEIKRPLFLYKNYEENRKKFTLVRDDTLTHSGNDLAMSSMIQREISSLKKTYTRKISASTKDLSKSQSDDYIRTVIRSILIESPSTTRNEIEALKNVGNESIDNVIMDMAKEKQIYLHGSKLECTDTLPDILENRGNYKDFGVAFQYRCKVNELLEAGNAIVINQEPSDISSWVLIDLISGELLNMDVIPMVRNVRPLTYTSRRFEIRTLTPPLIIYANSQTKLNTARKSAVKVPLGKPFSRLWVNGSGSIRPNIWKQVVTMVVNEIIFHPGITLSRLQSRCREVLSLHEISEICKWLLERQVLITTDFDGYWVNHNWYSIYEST

B1: τ131 (Tfc4), τA subunit of endogenous S. cerevisiae TFIIIC (natural protein, UniProt P33339 1-1025, looked up)
chain: MAAGKLKKEQQNQSAERESADTGKVNDEDEEHLYGNIDDYKHLIQDEEYDDEDVPHDLQLSEDEYNSERDSSLLAEFSDYGEISEDDEEDFMNAIREASNFKVKKKKKNDKGKSYGRQRKERVLDPEVAQLLSQANEAFVRNDLQVAERLFNEVIKKDARNFAAYETLGDIYQLQGRLNDCCNSWFLAAHLNASDWEFWKIVAILSADLDHVRQAIYCFSRVISLNPMEWESIYRRSMLYKKTGQLARALDGFQRLYMYNPYDANILRELAILYVDYDRIEDSIELYMKVFNANVERREAILAALENALDSSDEESAAEGEDADEKEPLEQDEDRQMFPDINWKKIDAKYKCIPFDWSSLNILAELFLKLAVSEVDGIKTIKKCARWIQRRESQTFWDHVPDDSEFDNRRFKNSTFDSLLAAEKEKSYNIPIDIRVRLGLLRLNTDNLVEALNHFQCLYDETFSDVADLYFEAATALTRAEKYKEAIDFFTPLLSLEEWRTTDVFKPLARCYKEIESYETAKEFYELAIKSEPDDLDIRVSLAEVYYRLNDPETFKHMLVDVVEMRKHQVDETLHRISNEKSSNDTSDISSKPLLEDSKFRTFRKKKRTPYDAERERIERERRITAKVVDKYEKMKKFELNSGLNEAKQASIWINTVSELVDIFSSVKNFFMKSRSRKFVGILRRTKKFNTELDFQIERLSKLAEGDSVFEGPLMEERVTLTSATELRGLSYEQWFELFMELSLVIAKYQSVEDGLSVVETAQEVNVFFQDPERVKMMKFVKLAIVLQMDDEEELAENLRGLLNQFQFNRKVLQVFMYSLCRGPSSLNILSSTIQQKFFLRQLKAFDSCRYNTEVNGQASITNKEVYNPNKKSSPYLYYIYAVLLYSSRGFLSALQYLTRLEEDIPDDPMVNLLMGLSHIHRAMQRLTAQRHFQIFHGLRYLYRYHKIRKSLYTDLEKQEADYNLGRAFHLIGLVSIAIEYYNRVLENYDDGKLKKHAAYNSIIIYQQSGNVELADHLMEKYLSI
notes: τ131 (Tfc4), subunit of S. cerevisiae TFIIIC, endogenous subunit in the purified complex; Endogenous subunit; source: endogenous, purified from S. cerevisiae strain SC2342 as part of TFIIIC (TAP tag on τ60)
B2: τ91 (Tfc6), τB subunit of endogenous S. cerevisiae TFIIIC (natural protein, UniProt Q06339 1-672, looked up)
chain: MAVIPAKKRGRPRKSVVAEVPYDSLASPVSENSGSKRPRRNASKKAVANFAQLVHAGRDDVINTTQVNNVDDTDDDDFVLNDEGDGEESDNVEIEFENELESTKNEVADLNSSGSGASVRPSGRRNTVQKLRLKKNSTKNMKSSSPGSSLGQKGRPIRLLKDLSSARDKIERIYGLNKEKLLLLAKVKEGFETSVFDFPFKNIQPDSPYFVCLDPPCKKESAYNKVIGDKNRTVYHEINKTEFENMIKLRTKRLKLLIGEVDAEVSTGDKIEFPVLANGKRRGFIYNVGGLVTDIAWLNIEENTDIGKDIQYLAVAVSQYMDEPLNEHLEMFDKEKHSSCIQIFKMNTSTLHCVKVQTIVHSFGEVWDLKWHEGCHAPHLVGCLSFVSQEGTINFLEIIDNATDVHVFKMCEKPSLTLSLADSLITTFDFLSPTTVVCGFKNGFVAEFDLTDPEVPSFYDQVHDSYILSVSTAYSDFEDTVVSTVAVDGYFYIFNPKDIATTKTTVSRFRGSNLVPVVYCPQIYSYIYSDGASSLRAVPSRAAFAVHPLVSRETTITAIGVSRLHPMVLAGSADGSLIITNAARRLLHGIKNSSATQKSLRLWKWDYSIKDDKYRIDSSYEVYPLTVNDVSKAKIDAHGINITCTKWNETSAGGKCYAFSNSAGLLTLEYLS
notes: τ91 (Tfc6), subunit of S. cerevisiae TFIIIC, endogenous subunit in the purified complex; source: endogenous, purified from S. cerevisiae strain SC2342 as part of TFIIIC (TAP tag on τ60)

Target: T1, τ138 (Tfc3), τB subunit of endogenous …
Test: cross-linking; XL-MS: purified endogenous TFIIIC (30 μg, 1 μg/μl) cross-linked with H12/D12 DSS to 2 mM, 40 min at 37 °C; ld-score >25
Settings: both partners purified

| Binder | binding result |
| --- | --- |
| B1 | binds |
| B2 | binds |
